# Measured values: patent US7812117B2, “Vasostatin as marrow protectant” (The United States of America as represented by the …, priority 1998, dated 2010)
# Read-outs that look alike come from different tables or passages of the source.
# Assays:
# [1] = system: athymic BALB/c nu/nu mice
# Procedure: (§1) Groups of 6-8 athymic BALB/c nu/nu mice, 6 weeks of age, were first irradiated with 400 rad, and 24 hr later were inoculated s.c. with 8×10^6 Burkitt lymphoma cells (CA46 cell line). Beginning 24 hr after cell inoculation, one group (n=6) of mice received daily s.c. inoculations of buffer alone (100 μl); a second group (n=6) received daily s.c. inoculations of a fusion protein of maltose binding protein and vasostatin, MBP-vaso, alone (200 μg in 100 μl of buffer); a third group (n=8) received daily s.c. inoculations of buffer alone (100 μl) plus cyclophosphamide once on day 9 post cell inoculation (2.6 mg i.p. in 100 μl of buffer); a fourth group (n=8) received daily s.c. inoculations of vaso (200 μg in 100 μl of buffer) plus cyclophosphamide once on day 9 post cell inoculation (2.6 mg i.p. in 100 μl of buffer); a fifth group received daily s.c. inoculations of buffer alone (100 μl) plus daily i.p. inoculations of cyclophosphamide (260 μg/mouse in 100 μl of buffer); and a sixth group received daily s.c. inoculations of vaso (200 μg/mouse in 100 μl of buffer) plus daily i.p. inoculations of cyclophosphamide (260 μg/mouse in 100 μl of buffer).
# [2] = system: femoral marrow hematopoietic cells
# Procedure: as §1
# [3] = system: Burkitt lymphoma cells (CA46 cell line); test: Burkitt lymphoma CA46 tumor growth in athymic mice treated with vaso and/or cyclophosphamide; assay type: in vivo, human; conditions: vaso 200 μg/day s.c., cyclophosphamide 260 μg/mouse/day i.p. for 26 days; for average tumor size: buffer control 5.85; for average tumor weight: buffer control 6.75
# Procedure: as §1
# [4] = system: peripheral blood white cells
# Procedure: Mice (C57BL/B6, females, 7.5 weeks old) were treated for 1 week with daily inoculations of vaso (300 μg/mouse) or buffer alone. On day 8, the mice received cytoxan (1 or 2 mg/mouse) and continued daily inoculation with buffer or vaso. Peripheral blood white cell counts were measured on day 5 after administration of cytoxan.
# C57BL6J mice (7 weeks of age) were first treated for 7 days daily with either buffer (100 μl s.c.) or vaso (300 μg/mouse in 100 μl of buffer s.c.). On day 8, groups of mice (n=6) pretreated with either buffer or vaso were injected with cyclophosphamide (1.0 or 2.0 mg/mouse) and continued on daily inoculations of buffer (100 μl s.c.) or vaso (300 μg/mouse in 100 μl of buffer s.c.). Additional control mice were treated with only buffer or vaso for 5 additional days. On days 3 and 5 after cyclophosphamide injection, ½ of the mice were killed for evaluation of the bone marrow and peripheral blood.
# [5] = system: peripheral blood white cells; remark: listed apart in the source
# Procedure: Groups of C57BL/6 mice (8 weeks of age) were treated as described in FIG. 14. FIG. 4A is a bar graph of the bone marrow cell count from mice treated for 16 days with either buffer alone (PBS, 100 μl/mouse/day s.c), Vaso (300 μg/mouse/day s.c) alone, Cytoxan (500 μg/mouse/day i.p.) alone, or vaso (300 μg/mouse/day s.c) plus Cytoxan (500 μg/mouse/day i.p.). Bone marrow was harvested on days 9 and 17 and the number of nucleated cells were counted. FIG. 4B is a bar graph of the bone marrow cell count from mice treated with for 11 days with either buffer alone (PBS, 100 μl/mouse/day s.c), Vaso (300 μg/mouse/day s.c) alone, Cytoxan (250 μg/mouse/day i.p.)×11 days plus Cytoxan 2 mg/mouse i.p. on day 11, or Cytoxan (250 μg/mouse/day i.p.)×11 days plus Cytoxan 2 mg/mouse i.p. on day 11 plus Vaso (300 μg/mouse/day s.c, days 1-16). Bone marrow cell counts were obtained on day 17. FIG. 4C is a bar graph of peripheral blood white cells counts (WBC) on day 17 from mice from the same treatment groups described in B.
# FIG. 14 is a schematic diagram of different treatment groups used in the studies described herein. • Group 1: Buffer alone (100 μl/mouse/day s.c)×16 days • Group 2: Vaso alone (300 μg/mouse/day s.c)×16 days • Group 3: Cyclophosphamide (500 μg/mouse/day i.p.)×16 days Group 4: Cyclophosphamide (500 μg/mouse/day i.p.)×16 days plus vaso (300 μg/mouse/day s.c)×16 days Group 5: Cyclophosphamide (250 μg/mouse/day i.p.)×11 days plus Cyclophosphamide 2 mg/mouse i.p. on day 11 Group 6: Cyclophosphamide (250 μg/mouse/day i.p.)×11 days plus Cyclophosphamide 2 mg/mouse i.p. on day 11 plus vaso (300 μg/mouse/day s.c) days 1-16.
# In addition, rather than treating the mice with vaso prior to toxin exposure as described above, mice were simultaneously inoculated with cyclophosphamide and vaso. Thus, groups of mice (n=6) received either buffer alone (100 μl s.c) daily for 16 days, vaso (300 μg/mouse s.c) alone daily for 16 days, cyclophosphamide (500 μg/mouse i.p.) either alone or together with vaso (300 μg/mouse s.c) for 16 days. Other groups of mice (n=6) were inoculated daily for 11 days with cyclophosphamide (250 μg/mouse i.p.) either alone or together with vaso (300 μg/mouse s.c).
# [6] = system: peripheral blood white cells; remark: listed apart in the source
# Procedure: Groups of mice (C57BL/B6, 6 weeks old, 10 mice/group) were treated for 4 days with either buffer (PBS, 100 μl/mouse/day), native vaso (200 μg/mouse/day s.c) or denatured vaso ([…]). On day 5, some of the animals were treated with cytoxan and the original treatment with buffer, native or denatured vaso was continued. On day 9 (5 days after one half of the mice had received cytoxan), peripheral blood white cell counts were measured.
# To examine whether the effects of vaso on the hematopoietic system are attributable to the native protein, the effects of native vaso were compared with the effects of vaso that had been denatured by boiling. Groups of mice (n=10) were treated for 4 days with either buffer (100 μl/mouse s.c); native vaso (200 μg/mouse/day s.c); or denatured vaso (300 μg/mouse/day s.c). On day 5, some of the mice were injected with cyclophosphamide (2 mg/mouse/i.p.) and treatment continued with either buffer, native vaso or denatured vaso. The experiment was terminated on day […], at which time peripheral blood counts were measured.
# [7] = same dose and regimen of cyclophosphamide plus vaso
molecule,measurement,setting,value
"O=P1(N(CCCl)CCCl)NCCCO1 (centres unmarked) [cyclophosphamide, reference compound]",mice alive on day 28,"[1]; cyclophosphamide 260 μg/mouse i.p. daily for 26 days, alone",8/8
same,mice alive on day 26,"[1]; cyclophosphamide 2.6 mg i.p. once on day 9 alone (daily buffer s.c.), 400 rad, CA46-inoculated, n=8",0/8
same,mice dead on day 13,"[1]; cyclophosphamide 2.6 mg i.p. once on day 9 alone, n=8",7 out of 8
same,histological appearance of femoral marrow,"[2]; cyclophosphamide only (260 μg/day, 26 days)",hypocellular and virtually depleted of hematopoietic cells
same,average tumor size,[3],4.98 cm^2
same,average tumor weight,[3],4.69 g
same,peripheral blood white cell counts on day 5 after cyclophosphamide,"[4]; cyclophosphamide 2.0 or 1.0 mg/mouse alone, vs buffer or vaso alone controls",significantly reduced
same,peripheral white blood cell counts on day 17,"[5]; cyclophosphamide 250 μg/mouse daily for 11 days then 2 mg/mouse on day 12, alone, vs untreated controls",reduction in white blood cell counts
same,average percent neutrophils on day 17,"[5]; cyclophosphamide 250 μg/mouse daily for 11 days then 2 mg/mouse on day 12, alone, controls 10-17%",13.4%
same,average percent lymphocytes on day 17,"[5]; cyclophosphamide 250 μg/mouse daily for 11 days then 2 mg/mouse on day 12, alone, controls 72-83%",62%
same,peripheral blood white cell counts,"[6]; cyclophosphamide 2 mg/mouse i.p. with buffer, vs buffer-only controls",markedly reduced
"vaso: N-terminal domain of calreticulin (amino acids 1-180, SEQ ID NO:3); given as fusion protein with maltose binding protein, MBP-vaso (protein, Vasostatin) EPAVYFKEQFLDGDGWTSRWIESKHKSDFGKFVLSSGKFYGDEEKDKGLQTSQDARFYALSASFEPFSNKGQTLVVQFTVKHEQNIDCGGGYVKLFPNSLDQTDMHGDSEYNIMFGPDICGPGTKKVHVIFNYKGKNVLINKDIRCKDDEFTHLYTLIVRPDNTYEVKIDNSQVESGSLE",mice alive on day 28,[1]; cyclophosphamide 260 μg/mouse i.p. daily in conjunction with vasostatin 200 μg/mouse s.c. daily,8/8
same,"gross and microscopic examination of liver, spleen, kidneys, heart, lung, lymph nodes and bone marrow","[1]; surviving mice, high dose cyclophosphamide plus vaso, day 26",No abnormalities were noted
same,mice alive and well on day 26,"[1]; vaso 200 μg s.c. daily plus cyclophosphamide 2.6 mg i.p. once on day 9, n=8, p<0.0001 vs cyclophosphamide alone",8/8
same,mice alive and well on day 28,[1]; vasostatin alone 200 μg s.c. daily,6/6
same,histological appearance of femoral marrow,"[2]; cyclophosphamide 260 μg/day plus vasostatin 200 μg/day, 26 days",indistinguishable from a normal control marrow
same,average tumor size,[3],4.85 cm^2
same,average tumor weight,[3],3.79 g
same,"reduction in peripheral blood white cell counts caused by cyclophosphamide, day 5",[4]; cyclophosphamide 2.0 or 1.0 mg/mouse with vaso 300 μg/mouse/day,alleviated
same,average percent lymphocytes on day 17,[5]; [7],25%
same,average percent neutrophils on day 17,[5]; [7],63%
same,white blood cells in the circulation on day 17,[5]; vaso in conjunction with cyclophosphamide 250 μg/mouse daily for 11 days then 2 mg/mouse,significantly greater number of white blood cells
same,peripheral blood white cell counts after cyclophosphamide (alleviation of toxicity),[6]; cyclophosphamide 2 mg/mouse i.p. plus native vaso 200 μg/mouse/day s.c. or denatured vaso 300 μg/mouse/day s.c.,minimally different from those of the control mice
